This test deals with T1, Aβ1-28 wild type (human).
T1 construct: amyloid-β (Aβ) residues 1-28, cut from the amyloid β precursor protein (APP); numbers count on: the Aβ peptide (position 2 of Aβ is position 673 of APP); Assembles into fibrils; also called Aβ1-28WT; WT; source: synthetic peptide (Fmoc solid-phase synthesis, purified by reverse-phase HPLC, purity >95%)
Description: neutron diffraction + other: synchrotron X-ray fibre diffraction; peptides or their mixtures dissolved in ddH2O at 10 mg/mL, dried four days at ambient temperature on quartz in a 7 T static magnetic field, re-humidified against 100% D2O for about 14 days; small- and wide-angle patterns. The following applies: both partners purified.

B1: Aβ1-28A2V (peptide)
peptide: DVEFRHDSGYEVHHQKLVFFAEDVGSNK
notes: amyloid-β (Aβ) residues 1-28 with the naturally occurring A-to-V substitution at position 2 of Aβ (A673V in APP); numbers count on: the Aβ peptide (position 2 of Aβ is position 673 of APP); also called mutated peptide Aβ1-28A2V; source: synthetic peptide (Fmoc solid-phase synthesis, purified by reverse-phase HPLC, purity >95%)
As for B1, the binding result was “binds”.

Values taken from article PMC5511251, “The A2V mutation as a new tool for hindering Aβ aggregation: A neutron and x-ray diffraction study” (Scientific Reports, 2017).
